Source: PMC10811483

What was measured:
Experiment in all cases: SPR
[1] = target: Z-M_D37AzK
[2] = target: Z-M_H19AzK-PyOx
[3] = target: Z-M_H19AzK
[4] = target: Z-M_K33AzK-PyOx
[5] = target: Z-M_K33AzK
[6] = target: Z-M_M8AzK-PyOx
[7] = target: Z-M_M8AzK

**Q.** How did the Kd [1] turn out when trastuzumab WT (antibody) was run?
**A.** 3.52 nM

**Q.** What about the Kd [2] of the same substance?
**A.** 4.94 nM

**Q.** What about the Kd [3] of the same substance?
**A.** 5.1 nM

**Q.** And the Kd [4]?
**A.** 3.48 nM

**Q.** What about the Kd [5] of the same substance?
**A.** 4.85 nM

**Q.** And the Kd [6]?
**A.** 5.02 nM

**Q.** And the Kd [7]?
**A.** 3.94 nM
